± gives the uncertainty stated by the source.
Test: self-splicing fitness, log relative to wild type (ln ratio); higher = more splicing; Tetrahymena group I intron in knt gene, E. coli kanamycin selection, DiMSum; sequences stand for … in CUCUCU…GGAGGGAAAAGUUAUCAGGCAUGCACCUGGUAGCUAGUCUUUAAACCAAUAGAUUGCAUCGGUUUAAAAGGCAAGACCGUCAAAUUGCGGGAAAGGGGUCAACAGCCGUUCAGUACCAAGUCUCAGGGGAAACUUUGAGAUGGCCUUGCAAAGGGUAUGGUAAUAAGCUGACGGACAUGGUCCUAACCACGCAGCCAAGUCCUAAGUCAACAGAUCUUCUGUUGAUAUGGAUGCAGUUCACAGACUAAAUGUCGGUCGGGGAAGAUGUAUUCUUCUCAUAAGAUAUAGUCGGACCUCUCCUUAAUGGGAGCUAGCGGAUGAAGUGAUGCAACACUGGAGCCGCUGGGAACUAAUUUGUAUGCGAAAGUAUAUUGAUUAGUUUUGGAGUACUCGUGGUCG
Outline: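 A randomised library covering all eight P1ex-region intron nucleotides was built with the intron in the knt kanamycin-resistance gene on pET-22b(+) and held in E. coli BL21(DE3). Cells were grown overnight at 37°C or 30°C on LB agar, with or without 25 μg/mL kanamycin, plus 100 μg/mL carbenicillin, 50 μM IPTG and 0.2% rhamnose, and pooled colonies were amplicon-sequenced on an Illumina HiSeq 2500. DiMSum fitness is the error-weighted combination of wild-type-normalised replicate fold changes, kanamycin versus none.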

Row | Sequence | self-splicing fitness (ln) (30 °C) | self-splicing fitness (ln) (37 °C)
1 | AAUUAGCAAUAUUACGACGG | -0.969 ± 0.14 | -0.972 ± 0.25
2 | AAUUAGCAAUAUUACGAUAA | -0.869 ± 0.098 | -0.069 ± 0.14
3 | AAUUAGCAAUAUUACGAUGG | -3.31 ± 0.24 | -0.247 ± 0.17
4 | AAUUAGCAAUAUUACGCACC | -0.701 ± 0.15 | 0.362 ± 0.17
5 | AAUUAGCAAUAUUACGCACU | -0.0585 ± 0.12 | -0.106 ± 0.15
6 | AAUUAGCAAUAUUACGCCCC | -0.573 ± 0.33 | -0.798 ± 0.49
7 | AAUUAGCAAUAUUACGCGCU | -0.647 ± 0.13 | -0.214 ± 0.2
8 | AAUUAGCAAUAUUACGCUCU | -0.501 ± 0.11 | 0.54 ± 0.15
9 | AAUUAGCAAUAUUACGCUGC | – | -2.79 ± 0.4
10 | AAUUAGCAAUAUUACGGAAA | -1.83 ± 0.29 | -1.72 ± 0.49
11 | AAUUAGCAAUAUUACGGACU | -0.43 ± 0.087 | 0.51 ± 0.14
12 | AAUUAGCAAUAUUACGGAGG | -3.68 ± 0.39 | -1.87 ± 0.25
13 | AAUUAGCAAUAUUACGGCGC | -0.632 ± 0.13 | -0.211 ± 0.13
14 | AAUUAGCAAUAUUACGGGGC | -2.38 ± 0.21 | –
15 | AAUUAGCAAUAUUACGUCAG | -1.16 ± 0.14 | -1.47 ± 0.24
16 | AAUUAGCAAUAUUACGUGGU | -4.47 ± 0.26 | -2.18 ± 0.14
17 | AAUUAGCAAUAUUACGUGUC | -3.59 ± 0.29 | -1.79 ± 0.2
18 | AAUUAGCAAUAUUACGUUGA | -2.74 ± 0.15 | -1.55 ± 0.11
19 | ACAAAGCAAUAUUACGAAAC | – | -0.88 ± 0.2
20 | ACAAAGCAAUAUUACGACUC | -0.72 ± 0.11 | -0.304 ± 0.12
21 | ACAAAGCAAUAUUACGAUAG | -3.47 ± 0.17 | -2.21 ± 0.19
22 | ACAAAGCAAUAUUACGAUGU | -3.56 ± 0.11 | -2.43 ± 0.12
23 | ACAAAGCAAUAUUACGCAAC | -2.37 ± 0.17 | -0.412 ± 0.17
24 | ACAAAGCAAUAUUACGCAGA | -2.12 ± 0.14 | -1.06 ± 0.093
25 | ACAAAGCAAUAUUACGCGGC | -2.91 ± 0.13 | -3.04 ± 0.21

From the supplement of paper PMC7877785
